Measurements taken from patent publication US10500249B2, “Compositions and methods for preventing or treating diseases, conditions, or processes characterized by aberrant fibroblast proliferation and extracellular matrix deposition” (MOERAE MATRIX, INC., priority 2014, dated 2019).

Assays:
Assay in all cases: Kinase Profiling Assay
Type in all cases: biochemical
Settings in all cases: 100 μM
CaMKIδ (h) = target: T1, CaMKIδ (h) (Homo sapiens, UniProt Q8IU85)
T1 construct: purchased Millipore
Method in brief: (§1)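 Scintillation counting quantifies radiolabeled, positively charged substrate retained on a negatively charged filter after kinase reaction with labeled ATP; inhibitor peptide present.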

Abl (Q252H) (h) = Abl (Q252H) (h) (Homo sapiens, UniProt P00519, Q252H)
Method in brief: as §1

WNK2 (h) = WNK2 (h) (Homo sapiens, UniProt Q9Y3S1)
WNK2 (h), sequence (Q9Y3S1 whole entry): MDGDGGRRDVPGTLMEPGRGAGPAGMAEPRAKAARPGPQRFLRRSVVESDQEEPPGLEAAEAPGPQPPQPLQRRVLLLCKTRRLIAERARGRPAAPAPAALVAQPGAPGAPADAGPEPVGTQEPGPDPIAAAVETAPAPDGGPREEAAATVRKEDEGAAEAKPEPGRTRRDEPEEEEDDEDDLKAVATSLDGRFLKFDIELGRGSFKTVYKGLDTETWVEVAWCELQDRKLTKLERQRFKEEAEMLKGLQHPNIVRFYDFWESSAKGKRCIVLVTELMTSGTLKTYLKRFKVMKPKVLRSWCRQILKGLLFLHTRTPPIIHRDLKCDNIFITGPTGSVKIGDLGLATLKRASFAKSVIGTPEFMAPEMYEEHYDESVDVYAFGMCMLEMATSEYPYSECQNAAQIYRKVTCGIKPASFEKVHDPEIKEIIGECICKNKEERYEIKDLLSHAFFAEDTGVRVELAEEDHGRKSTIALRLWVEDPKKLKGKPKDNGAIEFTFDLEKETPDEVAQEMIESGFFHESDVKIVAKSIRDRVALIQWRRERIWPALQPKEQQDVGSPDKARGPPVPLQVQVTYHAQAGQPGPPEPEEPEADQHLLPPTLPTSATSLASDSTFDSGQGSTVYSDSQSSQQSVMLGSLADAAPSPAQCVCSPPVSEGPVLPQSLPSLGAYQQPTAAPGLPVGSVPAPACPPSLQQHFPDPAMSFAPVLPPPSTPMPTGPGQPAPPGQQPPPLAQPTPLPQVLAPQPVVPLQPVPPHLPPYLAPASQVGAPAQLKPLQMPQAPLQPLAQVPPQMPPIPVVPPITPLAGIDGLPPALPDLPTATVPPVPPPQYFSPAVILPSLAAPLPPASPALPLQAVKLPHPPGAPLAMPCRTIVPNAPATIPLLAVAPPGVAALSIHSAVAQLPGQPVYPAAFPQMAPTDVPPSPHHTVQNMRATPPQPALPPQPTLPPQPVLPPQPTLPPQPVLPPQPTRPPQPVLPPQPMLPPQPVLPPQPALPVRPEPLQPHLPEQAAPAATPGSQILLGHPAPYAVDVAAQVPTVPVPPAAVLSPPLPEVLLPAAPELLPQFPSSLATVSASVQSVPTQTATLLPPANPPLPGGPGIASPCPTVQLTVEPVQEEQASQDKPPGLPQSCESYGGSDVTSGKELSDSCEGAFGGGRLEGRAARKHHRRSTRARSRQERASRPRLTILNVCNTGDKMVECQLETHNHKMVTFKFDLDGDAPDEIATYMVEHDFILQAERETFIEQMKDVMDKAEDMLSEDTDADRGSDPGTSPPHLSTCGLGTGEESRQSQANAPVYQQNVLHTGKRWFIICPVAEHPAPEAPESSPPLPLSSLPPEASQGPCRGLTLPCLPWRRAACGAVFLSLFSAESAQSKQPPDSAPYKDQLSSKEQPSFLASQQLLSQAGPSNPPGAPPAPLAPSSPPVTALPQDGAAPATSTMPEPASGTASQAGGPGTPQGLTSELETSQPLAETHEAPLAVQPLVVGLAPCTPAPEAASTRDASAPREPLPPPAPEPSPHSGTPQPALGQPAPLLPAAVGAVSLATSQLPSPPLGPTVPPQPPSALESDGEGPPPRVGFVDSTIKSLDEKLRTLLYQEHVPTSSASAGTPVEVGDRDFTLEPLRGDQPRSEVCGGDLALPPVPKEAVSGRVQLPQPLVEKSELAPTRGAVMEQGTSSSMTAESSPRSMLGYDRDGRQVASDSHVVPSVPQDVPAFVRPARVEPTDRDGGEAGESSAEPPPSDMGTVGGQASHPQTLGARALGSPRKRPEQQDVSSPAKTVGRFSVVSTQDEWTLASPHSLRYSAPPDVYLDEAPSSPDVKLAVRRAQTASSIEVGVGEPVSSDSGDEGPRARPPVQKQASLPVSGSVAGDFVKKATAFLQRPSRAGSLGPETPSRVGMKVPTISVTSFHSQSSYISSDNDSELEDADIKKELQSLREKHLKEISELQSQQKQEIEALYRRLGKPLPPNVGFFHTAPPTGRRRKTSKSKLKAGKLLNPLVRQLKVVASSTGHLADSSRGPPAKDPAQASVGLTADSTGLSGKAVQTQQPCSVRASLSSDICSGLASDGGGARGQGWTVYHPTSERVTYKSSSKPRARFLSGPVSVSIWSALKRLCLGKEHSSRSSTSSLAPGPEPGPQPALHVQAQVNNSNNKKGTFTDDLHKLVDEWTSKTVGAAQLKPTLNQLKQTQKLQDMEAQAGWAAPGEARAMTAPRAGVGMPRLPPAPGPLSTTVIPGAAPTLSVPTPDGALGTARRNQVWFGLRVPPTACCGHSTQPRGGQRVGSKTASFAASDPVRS
Method in brief: as §1

LKB1 (h) = target: T2, LKB1 (h) (Homo sapiens, UniProt Q15831)
T2 sequence (Q15831 1-433): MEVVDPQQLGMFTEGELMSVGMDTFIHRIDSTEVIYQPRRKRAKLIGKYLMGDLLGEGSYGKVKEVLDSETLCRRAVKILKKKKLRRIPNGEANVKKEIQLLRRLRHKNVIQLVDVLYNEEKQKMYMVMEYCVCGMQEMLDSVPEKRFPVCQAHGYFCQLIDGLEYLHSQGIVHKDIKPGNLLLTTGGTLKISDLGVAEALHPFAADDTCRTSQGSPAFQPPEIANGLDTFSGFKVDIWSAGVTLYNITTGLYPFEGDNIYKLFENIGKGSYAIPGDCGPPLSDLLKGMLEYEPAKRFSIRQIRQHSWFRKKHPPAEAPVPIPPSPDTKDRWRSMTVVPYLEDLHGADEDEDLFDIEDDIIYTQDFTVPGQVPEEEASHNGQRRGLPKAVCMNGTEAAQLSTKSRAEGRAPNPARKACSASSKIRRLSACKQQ
T2 sequence (Q7RTN6 1-431 partner): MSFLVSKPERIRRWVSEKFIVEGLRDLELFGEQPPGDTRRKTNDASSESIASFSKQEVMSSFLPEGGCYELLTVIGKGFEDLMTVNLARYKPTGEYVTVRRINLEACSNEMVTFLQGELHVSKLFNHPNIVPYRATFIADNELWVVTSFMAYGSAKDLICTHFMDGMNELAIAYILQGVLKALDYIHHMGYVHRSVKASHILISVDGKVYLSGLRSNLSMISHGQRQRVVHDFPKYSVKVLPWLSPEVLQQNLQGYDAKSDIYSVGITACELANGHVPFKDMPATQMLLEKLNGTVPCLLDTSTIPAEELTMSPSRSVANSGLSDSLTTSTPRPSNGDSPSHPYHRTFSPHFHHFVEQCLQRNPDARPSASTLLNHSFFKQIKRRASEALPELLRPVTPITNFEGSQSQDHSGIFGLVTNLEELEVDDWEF
T2 sequence (Q9Y376 1-341 partner): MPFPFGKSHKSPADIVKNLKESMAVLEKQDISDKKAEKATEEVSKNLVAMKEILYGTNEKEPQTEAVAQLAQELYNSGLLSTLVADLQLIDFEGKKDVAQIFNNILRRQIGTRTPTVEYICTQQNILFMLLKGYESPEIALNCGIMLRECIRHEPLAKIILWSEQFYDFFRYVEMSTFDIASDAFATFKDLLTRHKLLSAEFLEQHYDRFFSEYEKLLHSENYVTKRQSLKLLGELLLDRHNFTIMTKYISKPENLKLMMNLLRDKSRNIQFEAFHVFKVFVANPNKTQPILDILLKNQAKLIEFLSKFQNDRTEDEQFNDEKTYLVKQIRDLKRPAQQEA
Method in brief: as §1

CaMKIIδ (h) = target: T3, CaMKIIδ (h) (Homo sapiens, UniProt Q13557)
T3 construct: purchased Millipore
T3 sequence (Q13557 whole entry): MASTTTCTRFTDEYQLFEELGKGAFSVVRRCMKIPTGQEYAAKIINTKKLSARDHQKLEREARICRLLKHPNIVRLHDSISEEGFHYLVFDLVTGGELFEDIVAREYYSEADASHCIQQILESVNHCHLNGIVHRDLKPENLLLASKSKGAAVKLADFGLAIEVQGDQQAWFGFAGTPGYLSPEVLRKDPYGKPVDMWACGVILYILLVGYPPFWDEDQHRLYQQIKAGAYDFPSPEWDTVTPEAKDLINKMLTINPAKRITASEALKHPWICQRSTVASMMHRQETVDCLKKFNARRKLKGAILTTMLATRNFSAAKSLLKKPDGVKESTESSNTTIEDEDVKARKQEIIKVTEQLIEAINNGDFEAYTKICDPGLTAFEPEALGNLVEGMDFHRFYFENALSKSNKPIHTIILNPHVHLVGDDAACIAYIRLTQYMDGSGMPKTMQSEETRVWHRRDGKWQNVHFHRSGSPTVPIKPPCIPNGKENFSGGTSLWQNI
Method in brief: as §1

PKCτ (h) = target: T4, PKCτ (h) (Homo sapiens, UniProt P41743)
T4 sequence (P41743 1-596): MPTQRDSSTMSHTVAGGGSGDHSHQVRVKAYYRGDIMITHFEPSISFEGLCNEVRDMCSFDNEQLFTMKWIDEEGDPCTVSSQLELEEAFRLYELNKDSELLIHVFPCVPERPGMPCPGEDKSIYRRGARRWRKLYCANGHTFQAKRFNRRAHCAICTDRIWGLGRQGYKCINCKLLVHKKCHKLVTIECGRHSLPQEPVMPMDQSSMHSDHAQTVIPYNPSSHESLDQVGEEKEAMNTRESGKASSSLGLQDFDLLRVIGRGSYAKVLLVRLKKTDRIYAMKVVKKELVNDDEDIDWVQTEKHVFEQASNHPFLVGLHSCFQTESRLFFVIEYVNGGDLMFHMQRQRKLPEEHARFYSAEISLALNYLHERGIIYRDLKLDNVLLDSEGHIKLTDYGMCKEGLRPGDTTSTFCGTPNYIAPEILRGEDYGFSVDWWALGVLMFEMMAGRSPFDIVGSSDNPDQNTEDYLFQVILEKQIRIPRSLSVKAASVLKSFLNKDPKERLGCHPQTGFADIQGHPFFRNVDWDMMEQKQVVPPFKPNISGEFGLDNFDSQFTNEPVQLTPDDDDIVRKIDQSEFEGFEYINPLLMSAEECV
Method in brief: as §1

FGFR1(V561M) (h) = FGFR1(V561M) (h) (Homo sapiens, UniProt P11362, V561M)
Method in brief: as §1

PKCβI (h) = target: T5, PKCβI (h) (Homo sapiens, UniProt P05771)
T5 construct: purchased Millipore
T5 sequence (P05771 whole entry): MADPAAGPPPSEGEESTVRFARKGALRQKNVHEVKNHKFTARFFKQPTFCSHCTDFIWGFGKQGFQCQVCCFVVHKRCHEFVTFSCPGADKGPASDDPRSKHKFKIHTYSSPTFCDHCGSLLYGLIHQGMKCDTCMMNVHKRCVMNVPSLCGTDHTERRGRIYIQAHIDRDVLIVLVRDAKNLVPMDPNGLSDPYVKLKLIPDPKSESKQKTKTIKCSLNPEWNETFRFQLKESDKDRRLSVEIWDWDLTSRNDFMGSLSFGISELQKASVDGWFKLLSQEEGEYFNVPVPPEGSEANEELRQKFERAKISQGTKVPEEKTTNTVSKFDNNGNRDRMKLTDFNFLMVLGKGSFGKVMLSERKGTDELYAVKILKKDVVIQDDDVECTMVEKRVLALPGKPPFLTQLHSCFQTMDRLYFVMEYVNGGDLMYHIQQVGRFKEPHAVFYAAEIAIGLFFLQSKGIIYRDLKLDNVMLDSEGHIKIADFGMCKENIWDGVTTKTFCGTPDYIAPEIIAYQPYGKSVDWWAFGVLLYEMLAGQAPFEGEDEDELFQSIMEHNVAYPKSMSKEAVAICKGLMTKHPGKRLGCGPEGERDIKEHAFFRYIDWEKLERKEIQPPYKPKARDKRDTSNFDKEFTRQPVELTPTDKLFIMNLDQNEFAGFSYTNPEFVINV
Method in brief: as §1

cKit(D816H) (h) = target: T6, cKit(D816H) (h) (Homo sapiens, UniProt P10721, D816H)
T6 construct: purchased Millipore
Method in brief: as §1

PKCγ (h) = target: T7, PKCγ (h) (Homo sapiens, UniProt P05129)
T7 construct: purchased Millipore
Method in brief: as §1

PKBα (h) = target: T8, PKBα (h) (Homo sapiens, UniProt P31749)
T8 construct: purchased Millipore
T8 sequence (P31749 whole entry): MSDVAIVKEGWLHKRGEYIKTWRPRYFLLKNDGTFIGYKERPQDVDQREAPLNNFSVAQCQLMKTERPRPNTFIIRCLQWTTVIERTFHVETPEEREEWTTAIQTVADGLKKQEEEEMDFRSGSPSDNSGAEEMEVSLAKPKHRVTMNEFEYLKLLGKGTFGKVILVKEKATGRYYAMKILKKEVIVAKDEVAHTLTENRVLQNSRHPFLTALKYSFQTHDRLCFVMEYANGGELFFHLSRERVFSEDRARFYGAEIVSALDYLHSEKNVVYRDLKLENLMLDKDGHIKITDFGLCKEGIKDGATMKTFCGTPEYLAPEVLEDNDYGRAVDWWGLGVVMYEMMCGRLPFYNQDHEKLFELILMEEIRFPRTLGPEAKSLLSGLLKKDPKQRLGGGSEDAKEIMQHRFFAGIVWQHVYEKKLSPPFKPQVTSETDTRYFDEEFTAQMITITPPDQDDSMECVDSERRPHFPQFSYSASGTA
Method in brief: as §1

T1 sequence (Q8IU85 whole entry): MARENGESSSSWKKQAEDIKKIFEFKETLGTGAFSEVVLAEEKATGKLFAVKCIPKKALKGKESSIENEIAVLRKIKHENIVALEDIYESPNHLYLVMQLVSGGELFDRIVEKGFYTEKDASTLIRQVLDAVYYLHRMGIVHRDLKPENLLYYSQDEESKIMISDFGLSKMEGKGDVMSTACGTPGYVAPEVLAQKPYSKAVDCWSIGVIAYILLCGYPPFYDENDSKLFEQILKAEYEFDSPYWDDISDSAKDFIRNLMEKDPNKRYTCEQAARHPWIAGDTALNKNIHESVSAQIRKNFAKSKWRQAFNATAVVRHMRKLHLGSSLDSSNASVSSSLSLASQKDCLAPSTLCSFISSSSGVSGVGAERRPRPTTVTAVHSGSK

Sequence | % activity (CaMKIδ (h)) | % activity (Abl (Q252H) (h)) | % activity (WNK2 (h)) | % activity (LKB1 (h)) | % activity (CaMKIIδ (h)) | % activity (PKCτ (h)) | % activity (FGFR1(V561M) (h)) | % activity (PKCβI (h)) | % activity (cKit(D816H) (h)) | % activity (PKCγ (h)) | % activity (PKBα (h))
FAKLAARLYRKALARQLGVAA [MMI-0300] | 10% | 82% | 64% | 101% | 1% | 68% | 74% | 78% | 126% | 89% | 57%
HRRIKAWLKKIKALARQLGVAA (Mammalian) [MMI-0500] | 0% | 40% | 8% | 51% | 1% | 7% |  | 1% | 194% | 6% | 30%
KAFAKLAARLYRKALARQLGVAA [MMI-0400] | 17% | 98% | 54% | 89% | 2% | 46% | 74% | 78% | 143% | 79% | 67%
YARAAARQARAKALNRQLGVA (Mammalian) [MMI-0200] | 47% |  | 94% | 99% | 2% | 97% | 72% | 98% |  | 101% | 110%
